These results are taken from PMC4980433 (Molecular Cell, 2016).

Series [1] concerns the molecule itself. The series is described as follows: ultracentrifugation sedimentation assay; purified SAM domains (25 μM) centrifuged at an average 200,000 x g, 20°C, 1 hr; total, supernatant and pellet on SDS-PAGE with Coomassie staining; polymers partition into the pellet; proteins of Figure 5A affinity purified.
In the next series the target is T1, TNKS SAM Y1073A, O95271.
T1 chain: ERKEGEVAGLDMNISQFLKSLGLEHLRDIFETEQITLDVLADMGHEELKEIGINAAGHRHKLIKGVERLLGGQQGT
The series is described as follows: ITC. To be noted: chain shown with the change; N = 0.72±0.01.

A further series has as its target TNKS SAM Y1073A (human, UniProt O95271 1018-1093, Y1073A^T1). The series is described as follows: ITC. A general note: Isothermal titration calorimetry measures the heat released or taken up as one component is titrated into another.
Series [2] concerns the molecule itself. The series is described as follows: crystal structure; SAM domain mutants crystallized; head-to-tail (EH-ML) filaments in the crystals; molecular replacement.

Positions count from the first letter of the chain named. Numbers in names are those of the source.

B1: TNKS2 SAM domain (867-940), wild type (domain or fragment, human, UniProt Q9H2K2 867-940, looked up)
chain: EKKEVPGVDFSITQFVRNLGLEHLMDIFEREQITLDVLVEMGHKELKEIGINAYGHRHKLIKGVERLISGQQGL
notes: SAM domain of human Tankyrase 2 (TNKS2, ARTD6), residues 867-940; Forms polydisperse polymers (filaments); theoretical MW about 9 kDa; also called TNKS2 WT
Regarding B1, in series [1], the binding result is given as “binds”.

B2: TNKS SAM V1056W (domain or fragment)
chain: T1 chain with V39W, A56Y
As to B2, in the series with TNKS SAM Y1073A, O95271, the Kd (in general, the constant that tells how readily two partners part at equilibrium) is 820 nM; the other: ΔH was -6 kcal/mol; the other: ΔS was determined as 7.7 cal/mol/deg. Further, in the series with TNKS SAM Y1073A, binding was put at a Kd of 860 nM.

B3: TNKS SAM D1055R (domain or fragment, human, UniProt O95271 1018-1093, looked up)
chain: T1 chain with D38R, A56Y
notes: SAM domain of human Tankyrase (TNKS), residues 1018-1093, with D1055R; Polymer-breaking mutant used for crystallization (two crystal forms); also called TNKS D1055R^T1 SAM domain
For B3, the binding result in series [2] is recorded as “binds”.
